Source: publication doi:10.1101/2021.03.16.435614

Molecular target: CTD (C-terminal domain) of SOQ1 (SUPPRESSOR OF QUENCHING1), recombinant (Arabidopsis thaliana)
Experiment: MST

Kd: 8.76 µM
Substance: Trx-like domain of SOQ1 (SUPPRESSOR OF QUENCHING1), recombinant (domain or fragment)
